According to the DeepSol protein solubility set:

Assay: soluble on expression in E. coli; label from the status in PepcDB or PDB records

Sequence | soluble on expression in E. coli
PDLLIELFSEEIPARMQARAREDLKKLVTDGLVEAGLTYASAGAFSTPRRLVLSVEGLSAESPTLREERKGPKADAPAAAIEGFLRSTGLTRDQLETREDKKGAVLFAVVEKPGRRAPDIVAEVLERTIRTFPWPKSMRWGTGSLRWVRPLHSILCLLSDEAGSQVVPVTVDQVTAVNTTEGHRFMAPGRFAVTGFDDYRAKLQRALVMLDAAEREQAIWHEATTQAFAQGLEVVPDAGLLAEVAGLVEWPVVLMGPIGEEFLGLPPEVLQTSMREHQKFFSVRNPATGRIEKFVTVANRETADHGATILKGNAKVLSARLSDASFFWENDRRTVQTVGLEGMAAGLAHVTFHNKLGSQADRIARIEALAREIAPLVGASPDLAAEAARVAKADLQSAMVGEFPELQGTMGSYYARAAGLPEPVALACKAHYQPLGPSDAVPTDPVSVAVALADKIDTLTGFWAIDEKPTGSKDPFALRRAALGVVRLLLMNGLRLSLLNQVRFAHGCLAEQFNSRFNFFVQIREEPKEAVNIGVGHRYPEVVSDQCTSILMGYVENPVESVASGKFTIDGRAVGTKP | not soluble
MAHHHHHHMNQVIRSRTDWKERVVLRLAWITASRWSEIAALTPNNLKLKTDGTLILYWPVAPKTARTDPHRASRFVRIRGQDAFDIIKLCRTLQHIEKLTNLTTARVERALAPWNATAHSIRRGALRHAAQIVEAYNLNPHVISQLAKHVDPFDLPQNTVRYLGNCTTMLTQVLSLVALM | not soluble
QYVKPELPDVATLKDVELQTPMQVFSQDGKLIAQFGEKRRIPVTYDEIPQDLIHALIATEDSRFYEHPGIDPIGITRAAVVVALSGSAKQGASTITQQLARNFFLSNEKKLMRKIKEIFIAIHIEQLLSKQEIMELYVNKIFLGYRSYGFGAAAQVYFGKSLNELSLSEIATLAGMPKAPSTMNPIYSLERATKRRNVVLMRMLDEKYITQEQFDEARNEPIIARYHSAEIEVSAPYVAELARAWAVKEYGEEKAYTSGLNIYMTVDSKLQDAANKAAVNNLMAYDERHGYRGAEKVLWKEGEAAWDAEQIEKHLKGQPTYGDLYPAVVTKVEGKTAQVVVKNNDAQTIPWTGINWARKFLTDNRQGSTPKSAQEVLAAGEQIWVRELTTTDEDGNTQSSWKLSQVPSANT | not soluble
MSDIESLGEAAGLFEEPEDFLPPPPKPHFAEYQRSHITKESKSDVKDIKLRLVGTSPLWGHLLWNAGIYTANHLDSHPELIKGKTVLELGAAAALPSVICALNGAQMVVSTDYPDPDLMQNIDYNIKSNVPEDFNNVSTEGYIWGNDYSPLLAHIEKIGNNNGKFDLIILSDLVFNHTEHHKLLQTTKDLLAEKGQALVVFSPHRPKLLEKDLEFFELAKNEFHLVPQLIEMVNWKPMFDEDEETIEVRSRVYAYYLTHEK | soluble
GPSSPAGGEARVHVLVLSSWRSGSSFVGQLFNQHPDVFYLMEPAWHVWTTLSQGSAATLHMAVRDLVRSVFLCDMDVFDAYLPWRRNLSDLFQWAVSRALCSPPACSAFPRGAISSEAVCKPLCARQSFTLAREACRSYSHVVLKEVRFFNLQVLYPLLSDPALNLRIVHLVRDPRAVLRSREQTAKALARDNGIVLGTNGTWVEADPGLRVVREVCRSHVRIAEAATLKPPPFLRGRYRLVRFEDLAREPLAEIRALYAFTGLSLTPQLEAWIHNITHGSGPGARREAFKTSSRNALNVSQAWRHALPFAKIRRVQELCAGALQLLGYRPVYSEDEQRNLALDLVLPRGLNGFTWASSTASHPRN | soluble
MKKKTTLSEEDQALFRQLMAGTRKIKQDTIVHRPQRKKISEVPVKRLIQEQADASHYFSDEFQPLLNTEGPVKYVRPDVSHFEAKKLRRGDYSPELFLDLHGLTQLQAKQELGALIAACRREHVFCACVMHGHGKHILKQQTPLWLAQHPHVMAFHQAPKEYGGDAALLVLIEVEEWLPPELP | not soluble
ELQVIQPEKSVSVAAGESATLRCAMTSLIPVGPIMWFRGAGAGRELIYNQKEGHFPRVTTVSELTKRNNLDFSISISNITPADAGTYYCVKFRKGSPDDVEFKSGAGTELSVRAKPSAPVVSG | soluble
MSELSQLSPQPLWDIFAKICSIPHPSYHEEALAAHILEWAKEKGIYAERDQVGNILLRKAATAGMENRKPVVLQAHLDMVPQKNNDTVHDFTTDPIQPYVDGEWLKARGTTLGADNGIGMASALAVLADPSVEHGPLEVLLTMTEEAGMDGAFGLQPNWLQGEILINTDSEEEGEIYMGCAGGIDFITRLPLVREVPPAGYQTLKLTIKGLKGGHSGGDIHLGLGNANKLLARFLFEQAEALDIRILDLNGGTLRNAIPREAFATLSLPAANVEQLKTLSQDYLAVLKNELSAVEKNLTVLVEANDSNEHPLTQDSRDRLLGLLNATPNGVIRMSDDVKGVVETSLNLGVVTMEDDHAEIICLIRSLIDSGKDAVVGTLTALGQLAGAKTSPKGGYPGWQPDAHSPVMALVRETYQKQFNKTPNIMVIHAGLECGLFKKPYPDMDMVSIGPTITGPHSPDEQVHIGSVDLYWKLLTELLKAIPPRALEHHHHHH | soluble
MSLGNGVGTCDLPPQFAYFFQFSHLSATRNLLCLDLDETLVCSKQRTPQTRETEDFYVVVEQRGKRYEFSVIKRPGLDVFLVSMAELYDLAIFTYAIKEYGDKIVNIIDPNRLIKYRMYRQHCVKYLVDKRHVIVKDLSRVGKPHSSILLIDNSASTGIWQRNNFLLVPSFYGDERDKVLYELKELLEGISKCKDFYTEIQSLRSVEGHHHHHH | soluble
MSLSEKIIQLNEGIIKEELKNLVRSSVEETLNHLLDKEAEDLTNAAKYERTQERQGYRSGHYTRSLQTTSGEVTLRVPKLKGVPFETAIIERYRRRESSVEEALIEMYLAGVSVRRVEDITEALWGTKVSPGTISELNKKAYVHIENWRNRPLQDGKYPYVYVDGIYLKRNWGGEYENVSILVAIAVNQEGYREVIGAREGMKEDKASWKEFLQWLKGRGLDGVKLIVGDKCLGMLESVNEVFPEAKYQRCTVHFYRNIFSVTPRSKMKLVAKMLKAIHAQESKASAREKAKLVAEELKSMKLREAAKKLEDGIEETLTYMEFPYEHWTRIRTNNTIERLNREIRRRTRVVGTFPDGNSALMLVCARLRHVAGTQWGSKKYLNMKHLENMDSDEGHHHHHH | soluble
ALAKRIDAALILKDGRVVKGSNFENLRDSGDPVELGKFYSEIGIDELSFWDITASVEKRKTMLELVEKVAEQIDIPITVGGGIYDFETASELILRGADKVEINTAAVENPSLITQIAQTFGSQAVVVYIAAKRVDGEFMVFTYSGTKNTGILLRDWVVEVEKRGAGEIVLGSIDRLGTKSGYDTEMIRFVRPLTTLPIIAHRGAGKTEHFLEAFLAGADAAKADSVFHSREIDVRELKEYLKKHGVNVRLEGLGSLEHHHHHH | soluble
SLIDNPHAQDCWPNQGHMDVQGLTVKYTEAGRSVLQDLSFTVEGGQSVGVLGRTGSGKSTLLSALLRLASTDGEISIDGVSWNSVTLETWRKAFGVVPQKIFILTGTFRMNLDPHARYSDEELWRVAEEVGLKSVIEQFPDKLDFQLEDGGYVLSNGHKQLMCLARSILSKARILLLDEPSAFLDPITLQVLRKTLKQSFSNCTVILSEHRVEPLLECDSFLMIEGSSMKRYDSIQKLLNETSDLKQAMSAAE | soluble
MPMAKPLKYPVSALVVLYSGDGGILLIERTHPEGFWQSVTGSLEPGETVAQTARREVWEETGILLADGQLQDWHDSTVYEIYHHWRHRYPKGVFENREHLFSAEIPRDTPIALQPEEHVSYGWFDMEEAAEKVFSPSNRRAILELGRFLGKR | not soluble
MIEENLKQKIHDKFVAAKKNGHLKVTHAESKKLKDPQTTTQYWVTFAPSLALKPDANKNSDSKAEDPFANPDEELVVTEDLNGDGEYKLLLNKFPVVPEHSLLVTSEFKDQRSALTPSDLMTAYNVLCSLQGDKDDDVTCERYLVFYNCGPHSGSSQDHKHLQIMQMPEKFIPFQDVLCNGKDHFLPTFNAEPLQDDKVSFAHFVLPLPESSDQVDEDLLAMCYVSLMQRALTFFQDWTNESPELTKSYNVLLTKKWICVVPRSHAKSGPPLMLNINSTGYCGMILVKDREKLENLTEDPHLVDKSLLQCGFPNTAGQKPTEYHY | not soluble
MNKVAIAVAAVVAGSSALLNSAQAEMYIGGKVGMTTLDDACYLNSPCDDEAFGAGLHIGYDFTDFIGLEYGVDFLGDYKANFKSGASTVDTIDGNLTALTLAPKFNWHLNDSWNLFAKIGGAYMMSEDEKDFVATGSLGAEYSIDRNWSVRAEYQRYQDMSDDVWDDMDANFFGIGVNYKFAAAPVVAAVVTEEVVEPDPEPVLMSKVH | not soluble
LEKMQAHGLDKVEYKVCTNPGMEPDSLNKIASGGELSRISLAIQMITAQKGSTPTLLFDEVDVGIGGSTAALVGKMLRKLGERLQVFCVTHQPQVAASAHHHFLVTKHSNNNQTFTHISLLKASDKIAEIARMMGGLTITEQTLSHAKELISLSNE | not soluble
MAHHHHHHMAASANGSTKGSETDLPIGKDGTTLHLKCKSDELADRIIFVGDPGRVDVISGYFDKDSIRASRDHREIRFATGTYKGTPVTVISTGMGVDNIEIVLNEIHALKEYDMERGQWRHRKGDADAPSAGPFFDPSTMKIIRLGTCGSPAESVPPLALAVTRHAIGMDNTSLYYSAGTRETSKDQQEIRRIVREQTGLRAIDIYTSMAHPNITKSICAACDAHNAATGSEADKQQYVIGTTATASGFYGCQGRRVGRFMKHLTVPNMVEELGSLKFNLSNGVEVVTNIEMETSAICYLSDMLGYQAGAACVVVSKRVGEKKMFLGDQLDAAMKRCIKIILEALVSA | soluble
MKAQIIHSFGDSSVFQLEEVSKPKLLPGHVLIDVKATSVNPIDTKMRSGAVSAVAPEFPAILHGDVAGIVIEVGEGVSKFKCGDEVYGCAGGFKETGGALAEFMLADARLIAHKPNNITMEEAAALPLVAITAWESLFDRANIKSGQNVLIHGATGGVGHVAIQLAKWAGANVFTTASQQNKMEIAHRLGADVAINYKEESVQESVQEYVQKHTNGNGFEVIFDTVGGKNLDNSFEAAAVNGTVVTIAARSTHDLSPLHAKGLSLHVTFMALKILHTDKRNDCGEILTKITKIVEEGKLRPLLDSKSFTFDEVAQAHEYLESNKAIGKIVLKNVW | soluble
MEWKDIKGYEGHYQVSNTGEVYSIKSGKTLKHQIPKDGYHRIGLFKGGKGKTFQVHRLVAIHFCEGYEEGLVVDHKDGNKDNNLSTNLRWVTQKINVENQMSRGTLNVSKAQQIAKIKNQKPIIVISPDGIEKEYPSTKCACEELGLTRGKVTDVLKGHRIHHKGYTFRYKLNG | soluble
MAHLQYRDGDWYLHASMRKVEAGEGTSESESKHRTVLGVDLGVNNLAVASTGRFWSAGEFNHWRREYEKRRALLQQCGSRHAHENIESVGQKEYGRFEIYLHTVANELIEEAIENDCSHIVFEDLTHIRENIPEATWQHVWAFRRLYEYVEYKAKENGVEAVQVDPRNTSKRCLTCGFTHDDNRNGESFKCQQCGYENHADYNASKNIGLQYLRRRQNADDGGAPVDVRLNRGTLNVSGEYAHPASTEALEHHHHHH | not soluble
MGSDKIHHHHHHMQTLEQLTSPEHSAWITLSQWIDNARNHCEVIKKDQSSAERELFTMQMPTSSPMGAVIYETGGILIHYGWLRILGSGSFKLPRGLMDWNFSKSFSESGEKPKYLLVADDVIGGYFALNGGSLGNNIGKIYYYSSKDLTWHNLNFTYTEFLAWVLNGDVEAFYQGLFWKNWQDDVKQLDGNQVFVFTPDLNQDRKIAIDERQKQEVNIETHYQANFAEKNKFDLAYSVA | not soluble
